From PMC5983854, “Structure-guided approach to site-specific fluorophore labeling of the lac repressor LacI” (PLoS ONE, 2018)

Legend:
[1] = system: LacIDimer-S28C (Escherichia coli); assay: EMSA; details: apparent Kd; 3 mM MgCl2; EMSA: 1 nM DNA, 0.5-100 nM LacI, 10 mM Tris pH 7.5, 50 mM NaCl, 3 mM MgCl2, 1 mM TCEP, 0.1 mg/mL BSA, 5% glycerol, room temperature 1 h; TIRF: 100 mM phosphate
[2] = target: the molecule itself; assay: SEC; analytical gel filtration on HiLoad 16/600 Superdex 200, 0.2 mL/min, buffer C (200 mM Tris-HCl pH 7.5, 200 mM KCl, 1 mM EDTA, 0.5 mM TCEP); column calibrated with proteins of known molecular weight; dimer to monomers

Molecule: 5'-Cy5 O1 operator dsDNA
- Kd [1]: 5.63 nM

B1: LacI^ΔCterm (lactose operon repressor LacI, tetramerization helix residues 339-360 replaced with a 6xHis tag) (domain or fragment, E. coli, UniProt P03023 1-338, looked up)
chain: MKPVTLYDVAEYAGVSYQTVSRVVNQASHVSAKTREKVEAAMAELNYIPNRVAQQLAGKQSLLIGVATSSLALHAPSQIVAAIKSRADQLGASVVVSMVERSGVEACKAAVHNLLAQRVSGLIINYPLDDQDAIAVEAACTNVPALFLDVSDQTPINSIIFSHEDGTRLGVEHLVALGHQQIALLAGPLSSVSARLRLAGWHKYLTRNQIQPIAEREGDWSAMSGFQQTMQMLNEGIVPTAMLVANDQMALGAMRAITESGLRVGADISVVGYDDTEDSSCYIPPLTTIKQDFRLLGQTSVDRLLQLSQGQAVKGNQLLPVSLVKRKTTLAPNTQTAS
notes: Lactose operon repressor LacI, E. coli, 360 amino acid monomer; the native 22 C-terminal amino acids (tetramerization helix, residues 339-360) are replaced with a 6xHis tag, the rest is wild type; only the replaced stretch 339-360 is printed; source: E. coli TOP10 (pBAD24, arabinose-induced), purified (HisTrap HP, Superdex 200 SEC); not shown: His6, C-terminal, kept
- stoichiometry N [2]: 2

B2: LacI^Dimer (LacI^ΔCterm with C107A, C140A; Cys281 retained) (domain or fragment, E. coli, UniProt P03023 1-338, looked up)
chain: MKPVTLYDVAEYAGVSYQTVSRVVNQASHVSAKTREKVEAAMAELNYIPNRVAQQLAGKQSLLIGVATSSLALHAPSQIVAAIKSRADQLGASVVVSMVERSGVEAAKAAVHNLLAQRVSGLIINYPLDDQDAIAVEAAATNVPALFLDVSDQTPINSIIFSHEDGTRLGVEHLVALGHQQIALLAGPLSSVSARLRLAGWHKYLTRNQIQPIAEREGDWSAMSGFQQTMQMLNEGIVPTAMLVANDQMALGAMRAITESGLRVGADISVVGYDDTEDSSCYIPPLTTIKQDFRLLGQTSVDRLLQLSQGQAVKGNQLLPVSLVKRKTTLAPNTQTAS
notes: Lactose operon repressor LacI, E. coli; residues 339-360 replaced with a 6xHis tag; Cys107 and Cys140 replaced with alanine, Cys281 retained; source: E. coli TOP10 (pBAD24, arabinose-induced), purified (HisTrap HP, Superdex 200 SEC); not shown: His6, C-terminal, kept
- stoichiometry N [2]: 2
